In article PMC12846365:

What was measured:
[1] = target: 2mutVRC01; experiment: SPR; OpenSPR-XT; C-terminally Strep-tagged antibody immobilised on Strep-Tactin XT over biotin sensor/streptavidin/biotinylated Strep-Tag peptide; analyte monovalent gpCore or ICs; 1:1 fit model; apparent kinetic values
[2] = target: 3mutA32; experiment: as above
[3] = target: 7mutVRC01; experiment: as above
[4] = target: wtA32; experiment: not stated; KD of wtA32 in Table 1, no footnote and no method told
[5] = target: GTiii divalent immunogen, Fab-Fab-crosslinked version (HIV-1 strain BG505); experiment: native gel or EMSA
[6] = target: GTii divalent immunogen, Fab-Fab-crosslinked version (HIV-1 strain BG505); experiment: native gel or EMSA
[7] = target: GTi divalent immunogen, Fab-Fab-crosslinked version (HIV-1 strain BG505); experiment: native gel or EMSA
[8] = target: 3 plasmid ICs (as tested with N6); experiment: native gel or EMSA
[9] = target: 48d.cl IC, fusion version (gpCore + 48d heavy chain fusion, Fab-Fab-crosslinked K126C) (HIV-1 strain BG505); experiment: native gel or EMSA

2mutVRC01, sequence (light, as listed by the source, chain 2 of 2, other chains not shown): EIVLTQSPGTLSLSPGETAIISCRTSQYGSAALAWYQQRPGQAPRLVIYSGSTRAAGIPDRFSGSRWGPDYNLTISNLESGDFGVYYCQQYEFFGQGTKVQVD
7mutVRC01, sequence (heavy, as listed by the source, chain 1 of 2): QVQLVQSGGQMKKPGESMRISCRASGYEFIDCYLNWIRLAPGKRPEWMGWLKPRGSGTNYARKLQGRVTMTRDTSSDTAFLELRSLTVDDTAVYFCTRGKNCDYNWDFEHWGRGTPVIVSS
7mutVRC01, sequence (light, as listed by the source, chain 2 of 2): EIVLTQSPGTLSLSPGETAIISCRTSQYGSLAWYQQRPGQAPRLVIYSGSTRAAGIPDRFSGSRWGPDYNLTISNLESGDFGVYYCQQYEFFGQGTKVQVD
3mutA32, sequence (heavy, as listed by the source, chain 1 of 2): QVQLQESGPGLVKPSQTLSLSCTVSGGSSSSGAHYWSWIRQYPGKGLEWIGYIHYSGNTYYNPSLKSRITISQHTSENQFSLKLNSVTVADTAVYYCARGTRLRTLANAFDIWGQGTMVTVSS
3mutA32, sequence (light, as listed by the source, chain 2 of 2): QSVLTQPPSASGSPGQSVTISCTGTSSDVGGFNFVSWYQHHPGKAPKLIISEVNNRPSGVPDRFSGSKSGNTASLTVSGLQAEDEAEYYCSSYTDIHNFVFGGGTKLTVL
wtA32, sequence (heavy, as listed by the source, chain 1 of 2): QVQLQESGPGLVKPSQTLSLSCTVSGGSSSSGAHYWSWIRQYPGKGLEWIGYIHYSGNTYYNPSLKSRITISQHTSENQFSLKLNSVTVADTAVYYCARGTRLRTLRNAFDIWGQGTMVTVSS
wtA32, sequence (light, as listed by the source, chain 2 of 2): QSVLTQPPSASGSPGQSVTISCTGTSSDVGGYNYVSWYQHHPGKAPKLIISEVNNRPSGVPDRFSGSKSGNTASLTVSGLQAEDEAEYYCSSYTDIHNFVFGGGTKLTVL

gpCore (core gp120 of strain BG505), monovalent (domain or fragment)
Kd [1]: 200 nM
Kd [2]: 200 nM
Kd [3]: 7000 nM
Kd [4]: 0.4 nM

monomeric VRC01 IgM unmutated common ancestor (UCA) (antibody)
Kd [5]: 25 nM
Kd [6]: 60 nM
Kd [7]: 800 to 1000 nM

N6 (antibody)
stoichiometry N [8]: 1
stoichiometry N [9]: 1
